Test results as given in IntAct's records for PubMed 10198631.

B1: Bcl-2-like protein 11 (Mus musculus), O54918-2 (parent)
chain: MAKQPSDVSSECDREGGQLQPAERPPQLRPGAPTSLQTEPQDRSPAPMSCDKSTQTPSPPCQAFNHYLSAMASIRQSQEEPEDLRPEIRIAQELRRIGDEFNETYTRRVFANDYREAEDHPQMVILQLLRFIFRLVWRRH

Variants of: B1
Details: with dlrb1_human DYNLRB1, Q9NP97
Chain of dlrb1_human DYNLRB1, Q9NP97 (Q9NP97 whole entry): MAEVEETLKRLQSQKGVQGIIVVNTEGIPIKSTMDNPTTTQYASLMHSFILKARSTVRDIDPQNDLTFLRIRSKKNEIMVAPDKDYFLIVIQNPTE

Row | effect of a mutation on the interaction | Variant
1 | decreasing interaction | MAKQPSDVSSECDREGGQLQPAERPPQLRPGAPTSLQTEPQDRSPAPMSCDKSAQTPSPPCQAFNHYLSAMASIRQSQEEPEDLRPEIRIAQELRRIGDEFNETYTRRVFANDYREAEDHPQMVILQLLRFIFRLVWRRH
2 | decreasing interaction | MAKQPSDVSSECDREGGQLQPAERPPQLRPGAPTSLQTEPQDRSPAPMSCDKSAQTPSPPCQAFSHYLSAMASIRQSQEEPEDLRPEIRIAQELRRIGDEFNETYTRRVFANDYREAEDHPQMVILQLLRFIFRLVWRRH
3 | decreasing interaction | MAKQPSDVSSECDREGGQLQPAERPPQLRPGAPTSLQTEPQDRSPAPMSCDKPTQTPSPPCQAFNHYLSAMASIRQSQEEPEDLRPEIRIAQELRRIGDEFNETYTRRVFANDYREAEDHPQMVILQLLRFIFRLVWRRH
